Experimental data published in the supplement of paper PMC12042874.
± gives the uncertainty stated by the source.

Assay: amyloid nucleation score (Sup35N fusion, yeast selection) (log enrichment); library NNK3; higher = more nucleation; inactive = no reads after selection
Summary of the method: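 Growth for 7 days at 30°C on medium lacking adenine and uracil followed a 24-hour induction with 100 μM copper sulfate of psi-negative yeast expressing peptides of 20 random codons fused to Sup35N. Input and output plasmid inserts were sequenced with Illumina, and sequences with under 100 input reads were excluded. Nucleation score is the DiMSum log enrichment of output over input reads, centred on the mode score of non-aggregating sequences.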

Row | Substance | amyloid nucleation score
1 | FTNISVNNAVFVFVVCTAV | 2.52 ± 0.054
2 | LAQMVNGRITDHYTLFRSRT | inactive
3 | LLVLLVFTALY | inactive
4 | PLIYSTLNCKRM | inactive
5 | VIPARADATGPKEHGWLQLQ | inactive
6 | VECCNGLCDDVLGAVGNLGL | inactive
7 | VNRFVDTVGKGRITIIGCEH | inactive
8 | SEARCA | inactive
9 | TLMGLESVSVYFSMGFLSVY | inactive
10 | CSGISSNGGLLTLGCCFCRG | 2.96 ± 0.076
11 | PRRTNRVNKSISSVLSLRIG | 0.517 ± 0.57
12 | IYFDVV | inactive
13 | WYKNYASTRIPMIEWKRILT | inactive
14 | VEWMFTEMSVCLE | inactive
15 | RNVTRGYYMYFKRMVRHYWG | inactive
16 | LLRRLYLTLACPFYLMHTKC | inactive
17 | SIPVSCGPLKKDVVREIRVK | inactive
18 | RYSYLGVCIKMSRKVKCVVT | 0.086 ± 0.66
19 | NVRTLNSLDDLGVSFSSACT | inactive
20 | FPVARAIATMGWHIGALFLN | inactive
21 | ISYVYFLGPCV | 2.13 ± 0.08
22 | VGFILWFGGHCGS | 0.659 ± 0.23
23 | GLGYWAKGSHLWVLLRLLNH | inactive

Row | Substance | amyloid nucleation score
24 | NNMLIGVRSVRAYKWFMHCV | inactive
25 | TICYGD | inactive
26 | EEVMMRAINQEAPCEPQLRV | inactive
27 | SRHFTIEVSQFCIISQGVNL | inactive
28 | VICGCWIFFFYFLK | -0.354 ± 0.73
29 | WYMCLGSLMSIVF | inactive
30 | FYKLRHQVRTKISERYLPDS | inactive
31 | SKCGLLNSSGTYWNIG | 0.934 ± 0.15
32 | FSVQAIWFVMSLNRFLGKGR | inactive
33 | FLLVNLTVITRACEKLPMRP | -0.277 ± 1.1
34 | YFRFRSFLVLSDM | inactive
35 | VSVFMKLVRFET | 1.17 ± 0.091
36 | LLYARVIRRMCPKVVLFLSD | inactive
37 | FSCSYTMGQCEASCVWQLKY | 0.36 ± 0.35
38 | KDALISYFYYDCMHCPQASR | inactive
39 | KTPLSSSCRKILIINTPRGM | inactive
40 | IYRNKSTWWYWAWLVRNPML | inactive
41 | PGEHCWRRFLT | inactive
42 | RCFKLLNSTECCSKWVRAFS | inactive
43 | LIGDNRTGEVALYRFGSRMG | inactive
44 | KYVAKFSSLILTFL | inactive
45 | IEACSVSM | 0.059 ± 0.98
46 | SEASQRLLYTMVWTAHTQVM | inactive

Row | Substance | amyloid nucleation score
47 | TRWHDGKRVSWKSTPNMLSV | inactive
48 | LLEIDVGISRCLGVTSETFW | inactive
49 | DVCRTQSFGVAKTVIFCFLF | inactive
50 | SPLKIMH | inactive
51 | FLTLSSFHRPMVE | inactive
52 | ISWNLRGVVLLTYTICSWCI | inactive
53 | FIKHVRIKFTWSVSREF | inactive
54 | FNARLFISLLIKDRK | inactive
55 | LCLLYIGTSTIYGHECPDKT | inactive
56 | YWNYQMVCFCVNCV | 2.17 ± 0.075
57 | AWPIIRFYIQRYLWIVRGRG | inactive
58 | FKSAFWLIM | inactive
59 | TLVPVCGGSAGLVSSRKAAT | inactive
60 | PITMLE | inactive
61 | TRKLIDYLFTVKQVLQSKEE | inactive
62 | ASATAYSVNLRLKVTVNM | 1.71 ± 0.12
63 | VKMSWHHHCLFLICLCTSYE | 0.606 ± 0.13
64 | NCRYIVAPMKQLYMGIEMVL | inactive
65 | FGFCWLFNLCYLGNVVYAVM | inactive
66 | IKFVPRA | inactive
67 | ESRSRLRNGTLFNCVIN | -0.081 ± 0.5
68 | NVLFLVNY | 2.42 ± 0.067
69 | VAMRDERGLFNRLWLRVFV | inactive

Row | Substance | amyloid nucleation score
70 | PRTCMATSGPSGGHKSLFGF | inactive
71 | SAYYCLCMLMGHHWGRNELY | 0.277 ± 0.57
72 | DQGNPSNSSLDLPLGGSFGE | inactive
73 | HCVMNNVAWVLRYTDRRDAL | 1.2 ± 0.091
74 | NDLSDSMRVR | inactive
75 | SSVVT | inactive
76 | VESFICDMIVSPHSLS | inactive
77 | CIYWLEF | 1.57 ± 0.084
78 | QRFPKCI | inactive
79 | LLSTTSAVAGGMACVSRNMW | inactive
80 | YHYLSNVGMRWGDFTYSWFM | inactive
81 | FMVWYREMDLVLVAQREEYK | inactive
82 | KSKHTVMRWSLYSRRIMLVF | inactive
83 | STNWMVRLFYSRIEWGVNLG | inactive
84 | TVNWLL | inactive
85 | IPSNTKSFSH | inactive
86 | CGYKEVGVPASRRMNS | inactive
87 | TSVSKFKPVLHYNRTGSHGF | inactive
88 | QRLVINDMMPLFFWHSNMGD | inactive
89 | NMIEVI | inactive
90 | IYISFWR | 0.521 ± 0.2
91 | CANFRV | inactive
92 | IYTSFVTMERALSMFSPLFH | inactive

Row | Substance | amyloid nucleation score
93 | FFYSAFENMMMALLKMRKFH | inactive
94 | ILSDMTGDHNSINFDMYSGI | inactive
95 | EGCSVRRTTHRAQVMRVGWM | inactive
96 | NMFRFLMCSSTRHYVRIMTN | inactive
97 | VSCRQLYQSIGGRKPDRRFI | inactive
98 | GQAVNYFGGA | inactive
99 | GIREAV | inactive
100 | YNFNV | inactive
101 | IIVRSTDGLSCRSDSIYECD | inactive
102 | QGLSCDFRVLLLIYRSCGRG | inactive
103 | FQIKT | 0.041 ± 0.81
104 | TEDHH | inactive
105 | LSEVRLRRQLLVGACDGGYN | inactive
106 | LDLSLMHGMFTYFGVHMMMP | inactive
107 | VSLFGCKIMLRMKFGVCLSG | inactive
108 | ERRKIGLKLLRLRQNNGIMA | inactive
109 | VTQESNHATIAVLM | inactive
110 | QRYTFIIIGTGWTGYYRHTP | -0.156 ± 0.41
111 | MFSPQSNRFSSFGNNSITGH | inactive
112 | SCSWHFIFCCNGLHMSVKKR | 1.66 ± 0.084
113 | TWVCEG | inactive
114 | AIVESKPYLRSVL | inactive
115 | IVQVV | inactive

Row | Substance | amyloid nucleation score
116 | WKPCS | inactive
117 | RYKGFINVLC | inactive
118 | DCRAIVLRL | inactive
119 | KARLLMWS | 0.181 ± 0.28
120 | EAVYLSLYKECLCLVRVS | inactive
121 | TLWAEYTNLSEKEIDDYIDL | inactive
122 | DLGLERLAFS | inactive
123 | QAYAS | -0.099 ± 0.96
124 | KQRVWR | inactive
125 | WKFAGHEALWFLKIIEMLR | inactive
126 | HCCNIRRARTQF | inactive
127 | QVTLWFKKNLSELM | inactive
128 | TYKRIPYELTRSGTKPLYTP | inactive
129 | HTTIQETFVRIPRLCRWHRR | inactive
130 | TKWRLTP | inactive
131 | RGNDLIVCCGDRMCFCNALS | inactive
132 | TYKHNSTYIKPLTSFLQSGG | inactive
133 | NGSHDRGVPAELSAFKG | inactive
134 | SYGGYQFLYVNSDKLRV | inactive
135 | CWQFK | 0.22 ± 0.9
136 | FHMFYRFSGDNGPKKFH | 0.607 ± 0.26
137 | MNTVGLIDLHSGAPLSINRT | inactive
138 | CTGYDCVGMGADFCARMWHC | inactive

Row | Substance | amyloid nucleation score
139 | PTRNYCLLVKDY | inactive
140 | GADVSSHVKIFINYNLFSFI | 2.55 ± 0.076
141 | RISLCVHFILFCFPSSRQSL | 0.815 ± 0.12
142 | NSGNSIAVAAALDKDTLQAG | inactive
143 | ALKDGIFFFHA | inactive
144 | DLRALPKVFLMLDKYSIMSG | inactive
145 | RLTTNTIVKDSISRFRN | 0.183 ± 0.29
146 | SSMSRVCEIKVLYNMSGVYT | inactive
147 | RSLFSISAVIEICMLWSV | inactive
148 | MFYVVLSYK | 0.071 ± 0.38
149 | LSLYPFMWKYIIGAGKWLFL | inactive
150 | FMPANAFWTKFCSARNRLYI | -0.135 ± 0.57
151 | SEAMFSIVLKECNGGACR | inactive
152 | VFVFDVLFGLLNMANFREVD | -0.713 ± 0.88
153 | LDWCAYWVSVISRWN | inactive
154 | HFRIKNTCFKRCLSVESRKY | inactive
155 | SYYPRIRRLGWECSWTPMLQ | inactive
156 | DFAVGLLVHWHNPHYNTELQ | 1.25 ± 0.13
157 | SPVHLCMDLGSS | inactive
158 | GAIRLRSVNSNLGWLTAPLR | inactive
159 | YNFWMRQVVMRVTVCGNDEA | inactive
160 | LTNGRNTYFLLSRYYFGTTS | inactive
161 | LVVLIFYYV | inactive
